In US20260103488A1:

Molecular target: Lck(h) (lymphocyte-specific protein tyrosine kinase) (human) (UniProt P06239)
Assay: cell-based or functional assay

Chain of Lck(h) (lymphocyte-specific protein tyrosine kinase) (human) (P06239 whole entry): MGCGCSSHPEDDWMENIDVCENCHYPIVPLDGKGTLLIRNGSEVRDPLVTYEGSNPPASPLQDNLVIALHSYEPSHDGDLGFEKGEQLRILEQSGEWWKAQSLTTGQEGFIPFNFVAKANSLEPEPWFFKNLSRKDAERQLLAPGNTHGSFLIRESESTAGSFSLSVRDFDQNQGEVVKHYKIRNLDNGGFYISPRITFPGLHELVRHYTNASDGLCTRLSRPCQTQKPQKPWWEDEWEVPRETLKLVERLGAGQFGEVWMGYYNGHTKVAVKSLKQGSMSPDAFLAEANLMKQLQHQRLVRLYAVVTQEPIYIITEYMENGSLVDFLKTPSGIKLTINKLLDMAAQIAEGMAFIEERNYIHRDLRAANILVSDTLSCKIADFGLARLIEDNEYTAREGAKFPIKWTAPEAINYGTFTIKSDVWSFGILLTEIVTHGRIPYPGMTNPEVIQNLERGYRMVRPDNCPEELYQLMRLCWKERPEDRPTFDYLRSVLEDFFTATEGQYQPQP

rskaknplyrrrrrrrrr (IKD14800) (peptide)
Lck activity, percentage relative to control, in vitro kinase assay, peptide 1 µM (% increase in Lck activity): 490
